Laboratory results from US20210259954A1, “CILIA-TARGETING NANOPARTICLES” (Chapman University, priority 2019, published 2021).
Values belong to the compound of their own block, whether it stands above or below them.

Assays:
p-ERK = assay: Immunoblotting of phosphorylated ERK; format: cell-based; details: PKG inhibition
Description: Immunoblotting. […] Samples were kept on ice during sonication to prevent overheating. Samples were then centrifuged at 15,000 rpm for 20 min, and the supernatants were collected and subjected to protein quantification. The PAGE (polyacrylamide gel electrophoresis) on 6-10% SDS gels was performed followed by semi-dry transfer to PVDF membranes using a Bio-Rad Trans-Blot Turbo Transfer System and detection using antibodies against t-ERK (1:1,000), p-ERK (1:1,000), NOS (1:200), and GAPDH (1:2,000) (Cell Signaling Technology). Blots were scanned with both calorimetry to image molecular markers and chemiluminescence to capture the protein signal intensity using a Bio-Rad imager.

[1] = target: Dopamine-receptor type-5 (DR-5) on primary cilia of cultured cells; assay: live single-cell fluorescence imaging of perfused fluorescent nanoparticles on the cilium
[2] = target: Dopamine-receptor type-5 (DR-5) on primary cilia of cultured cells; assay: live single-cell-single-cilium fluorescence intensity per area
[3] = target: Dopamine-receptor type-5 (DR-5) on primary cilia of cultured cells; assay: fluorescence intensity in non-permeabilized live cells

Compound: Nc1nc2c(nc(Sc3ccc(Cl)cc3)n2C2OC3COP(O)(=S)OC3C2O)c(=O)[nH]1 (centres unmarked) [Rp-8pCPT-cGMP]
flow-induced effect of NPs on ERK phosphorylation (p-ERK): reduced the flow-induced effect of NPs on ERK phosphorylation

binding kinetics to cilia [1]: 0.21 min⁻¹
Compound: CT-DAu-NPs (cilia-targeted dopaminergized gold nanoparticles carrying DR-5-AF594 antibody and fenoldopam)

proportion of specific binding cilium:cell:background (relative to background = 1) [2]: 17000 | ratio of cilia-to-cell body specificity [3]: 158
Compound: CT-Fe2O3-NPs (antibody- and fenoldopam-loaded Sunbright-40-OA-Fe2O3-NPs)

binding kinetics to cilia [1]: 0.26 min⁻¹
Compound: CT-PLGA-NPs (cilia-targeted PLGA nanoparticles carrying DR-5-AF594 antibody and fenoldopam)
